Measured values from PMC2780419.

Target: GST-gc-p300/CH1 fusion protein (CH1 domain of grass carp p300) (grass carp (Ctenopharyngodon idella))

gcHIF-1-mediated transactivation of HRE-luciferase activity in CHO cells, change in the presence of gcCITED3b	gcHIF-1-mediated transactivation of HRE-luciferase activity in CHO cells, change in the presence of gcCITED3a	Substance
-40%		gcCITED3b (grass carp CITED3b), in vitro translated (natural protein)
	-40%	gcCITED3a (grass carp CITED3a), in vitro translated (natural protein)
